Assay results published in publication PMC4900672, “Mechanism of Mitochondrial Transcription Factor A Attenuation of CpG-Induced Antibody Production”.

Tests used:
Experiment in all cases: fluorescence anisotropy; FA: 50 mM HEPES-Na pH 7.4, 150 mM NaCl, 1 mM DTT, 20 C, 500 pM FM-DNA, Hill fit; EMSA: 5 nM FM-DNA, 8% PAGE, 0.33x TBE
TFAM = target: T1, TFAM (UniProt Q00059 43-246); settings: protein: recombinant, label: 5'-6FAM
T1 sequence: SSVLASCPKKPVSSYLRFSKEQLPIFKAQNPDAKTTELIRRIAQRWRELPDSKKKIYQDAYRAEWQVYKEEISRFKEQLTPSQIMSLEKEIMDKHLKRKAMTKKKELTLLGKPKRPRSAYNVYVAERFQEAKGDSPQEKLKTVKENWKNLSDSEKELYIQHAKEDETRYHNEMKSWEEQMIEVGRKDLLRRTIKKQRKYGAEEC

TFAM HMG Box A = target: T2, TFAM HMG Box A (UniProt Q00059 50-118); settings: protein: recombinant, label: 5'-6FAM
T2 sequence: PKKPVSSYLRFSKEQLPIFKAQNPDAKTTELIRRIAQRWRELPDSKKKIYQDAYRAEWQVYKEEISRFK

TFAM HMG Box B = target: T3, TFAM HMG Box B (UniProt Q00059 155-219); settings: protein: recombinant; label: 5'-6FAM; G-quadruplex possible (previous studies)
T3 sequence: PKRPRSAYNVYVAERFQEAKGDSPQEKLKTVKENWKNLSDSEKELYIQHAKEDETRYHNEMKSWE

[1] = G-quadruplex possible (previous studies)

Question: What does the source list for TCGTCGTTTTGTCGTTTTGTCGTT (XNA, phosphorothioate (positions in Fig 1A)) [CpG-B (PS)]?
Answer: Kd (TFAM; single-stranded by CD): 1.3 ± 0.03 nM; Kd (TFAM HMG Box A; single-stranded by CD): 10.4 ± 1 nM

Question: Which Kd (TFAM; single-stranded) does the source give for TCGTCGTTTTGTCGTTTTGTCGTT (ssDNA) [CpG-B (PD)] here?
Answer: 4.66 ± 0.2 nM

Question: With GGGGACGACGTCGTGGGGGGG (XNA, phosphorothioate (positions in Fig 1A)) [CpG-A (PS)] as the binder, how does the Kd (TFAM; [1]) read?
Answer: 1.83 ± 0.07 nM

Question: And the Kd (TFAM HMG Box A; [1])?
Answer: 71.2 ± 38 nM

Question: What about the Kd (TFAM HMG Box B) of the same binder?
Answer: 231 ± 30 nM

Question: Which Kd (TFAM; single-stranded) does the source give for TTAACAGTCACCCCCCAACTAACAC (XNA, phosphorothioate (positions in Fig 1A)) [ssLSP (PS)] here?
Answer: 5.06 ± 0.1 nM

Question: With TTAACAGTCACCCCCCAACTAACAC (ssDNA) [ssLSP (PD)] as the binder, how does the Kd (TFAM; single-stranded) read?
Answer: 10.2 ± 0.5 nM
